Source: publication PMC12607393

How the values were obtained:
[1] = target: Galactia lindenii Type I lectin (GLL-I) (Galactia lindenii); assay: SDS-PAGE of unheated sample; purified GLL-I (15 ug per lane) in SDS without heating, with or without DTT; Coomassie staining
[2] = target: Galactia lindenii Type I lectin (GLL-I) (Galactia lindenii); assay: SDS-PAGE of heated sample; purified GLL-I (15 ug per lane) in SDS + DTT with heating (reducing conditions); Coomassie staining

- stoichiometry N [1]: 4
- stoichiometry N [2]: 2
Substance: Galactia lindenii Type I lectin (GLL-I) (natural protein)
